# US9127035B2, “Compounds for use in the treatment of bacterial infection” (THE ROYAL INSTITUTION FOR THE ADVANCEMENT OF …, priority 2011, dated 2015)
# B1: E. coli pantothenate kinase (PanK or coaA enzyme) (Escherichia coli K-12) (protein)
# chain: MSIKEQTLMTPYLQFDRNQWAALRDSVPMTLSEDEIARLKGINEDLSLEEVAEIYLPLSRLLNFYISSNLRRQAVLEQFLGTNGQRIPYIISIAGSVAVGKSTTARVLQALLSRWPEHRRVELITTDGFLHPNQVLKERGLMKKKGFPESYDMHRLVKFVSDLKSGVPNVTAPVYSHLIYDVIPDGDKTVVQPDILILEGLNVLQSGMDYPHDPHHVFVSDFVDFSIYVDAPEDLLQTWYINRFLKFREGAFTDPDSYFHNYAKLTKEEAIKTAMTLWKEINWLNLKQNILPTRERASLILTKSANHAVEEVRLRK
# notes: made in house
# Legend:
# Assay in all cases: PanK enzyme assay (Michaelis-Menten kinetics)
# Assay type in all cases: biochemical, E. coli
# Conditions in all cases: other: transformation by PanK, 25° C., Tris-HCl pH 7.6, triplicate
# [1] = substrate: CC(C)(CO)[C@@H](O)C(=O)NCCC(=O)NCCSCCCCCC(=O)NC[C@H]1O[C@H](O[C@H]2[C@H](O)[C@@H](O)[C@H](N)C[C@@H]2N)[C@H](N)[C@@H](O)[C@@H]1O
# Procedure: (§1) PanK enzyme assay. The E. coli pantothenate kinase (PanK or coaA enzyme) was expressed and purified as previously described. Enzyme activity was measured as described in the literature [Strauss E, Begley T P J Biol Chem, 2002, 277:48205-48209]. This assay couples the production of ADP to the consumption of NADH through the activity of pyruvate kinase and lactic dehydrogenase. The decrease of NADH concentration was monitored at 340 nm. Reactions were performed at 25° C. in an Agilent 8453 UV-Vis spectrophotometer coupled to an Agilent 89090A Peltier temperature controller. Kinetic parameters were determined by fitting the rate data into the Michaelis-Menten equation using Prism 4.0 (GraphPad). Each reaction mixture (500 μL) contained ATP (1.5 mM), NADH (0.3 mM), phosphoenolpyruvate (0.5 mM), MgCl2 (10 mM), KCl (20 mM), pyruvate kinase (5 units), lactic dehydrogenase (5 units), and PanK (5 μg, 278 nM) in Tris-HCl buffer (50 mM, pH 7.6). The reaction was initiated by addition of the desired substrate (10-160 μM). All data points are from triplicate experiments.
# [2] = substrate: [H][C@]1(O[C@H]2[C@H](O)[C@@H](O)[C@H](N)C[C@@H]2N)O[C@H](CNC(=O)CCCCSCCNC(=O)CCNC(=O)[C@H](O)C(C)(C)CO)[C@@H](O)[C@H](O)[C@H]1N
# Procedure: as §1
# [3] = substrate: [H][C@]1(O[C@H]2[C@H](O)[C@@H](O)[C@H](N)C[C@@H]2N)O[C@H](CNC(=O)CCCSCCNC(=O)CCNC(=O)[C@H](O)C(C)(C)CO)[C@@H](O)[C@H](O)[C@H]1N
# Procedure: as §1
# [4] = substrate: [H][C@]1(O[C@H]2[C@H](O)[C@@H](O)[C@H](N)C[C@@H]2N)O[C@H](CNC(=O)CCSCCNC(=O)CCNC(=O)[C@H](O)C(C)(C)CO)[C@@H](O)[C@H](O)[C@H]1N
# Procedure: as §1
protein,measurement,setting,value
B1,Km,[1],170 ± 50 µM
same,Km,[2],230 ± 69 µM
same,kcat,[2],0.52 ± 0.08 s⁻¹
same,kcat/Km,[2],2300 ± 800 M⁻¹ s⁻¹
same,Km,[3],350 ± 80 µM
same,kcat,[3],0.5 ± 0.05 s⁻¹
same,kcat/Km,[3],1400 ± 400 M⁻¹ s⁻¹
same,Km,[4],480 ± 160 µM
same,kcat,[4],0.47 ± 0.05 s⁻¹
same,kcat/Km,[4],1000 ± 300 M⁻¹ s⁻¹
